The values that follow come from patent publication US20250011363A1, “OPTIMIZED SHORTENED PEPTIDE THAT BINDS TO ACETYLCHOLINE RECEPTOR, AND USE THEREOF” (SKINMED CO., LTD., priority 2021, published 2025).

In test [1] the target is acetylcholine receptor. As to the kind of experiment: SPR, receptor immobilized on CM5 chip, peptide 10 uM. For orientation: Surface plasmon resonance follows binding to a sensor surface in real time, without labels.
In test [2] the target is acetylcholine receptor. As to the kind of experiment: SPR, AchR immobilized on CM5 chip, peptide at 10 uM.

B1: 6mer-1-285 (peptide)
peptide: KRWVQR
In the test with acetylcholine receptor [1], B1 returned a Binding affinity (RU) of 122 RU.

B2: 5mer-1042 (peptide)
peptide: RCCAK
B2 registered a Binding affinity (RU) with acetylcholine receptor [2] of 28 RU.

B3: 6mer-1-290 (peptide)
peptide: RKQLTK
For the molecule B3, the Binding affinity (RU) with acetylcholine receptor [1] was determined as 146 RU.

B4: 6mer-1-284 (peptide)
peptide: KRSRQK
On to B4, for which, in the test with acetylcholine receptor [1], the Binding affinity (RU) is 145 RU.

B5: 6mer-1-291 (peptide)
peptide: KKQIRK
As for B5, the Binding affinity (RU) in the test with acetylcholine receptor [1] was 142 RU.

B6: 5mer-1036 (peptide)
peptide: KTHMK
Turning to B6, the Binding affinity (RU) with acetylcholine receptor [2] came to 23 RU.

B7: 5mer-1035 (peptide)
peptide: KEHVR
Take B7: the Binding affinity (RU) with acetylcholine receptor [2] was determined as 19 RU.

B8: 5mer-1043 (peptide)
peptide: KFEMK
In the case of B8, the Binding affinity (RU) with acetylcholine receptor [2] worked out at 15 RU.

B9: 5mer-734 (peptide)
peptide: KATER
In turn, B9 came in with a Binding affinity (RU) with acetylcholine receptor [2] of 16 RU.

B10: 6mer-1-293 (peptide)
peptide: RKRVCK
Turning to B10, in the test with acetylcholine receptor [1], the Binding affinity (RU) is 154 RU.

B11: 6mer-1-274 (peptide)
peptide: KRLLYK
In the case of B11, the Binding affinity (RU) with acetylcholine receptor [1] turned out to be 135 RU.

B12: 5mer-1031 (peptide)
peptide: RKEER
On to B12, for which the Binding affinity (RU) with acetylcholine receptor [2] was determined as 13 RU.

B13: 5mer-744 (peptide)
peptide: KTEAK
Consider B13, for which the Binding affinity (RU) in the test with acetylcholine receptor [2] stood at 32 RU.

B14: 5mer-1028 (peptide)
peptide: RMAMR
For B14, the Binding affinity (RU) with acetylcholine receptor [2] was found to be 28 RU.

B15: 5mer-740 (peptide)
peptide: RMMGK
B15 returned a Binding affinity (RU) with acetylcholine receptor [2] of 21 RU.

B16: 6mer-1-283 (peptide)
peptide: KKWVQK
As for B16, in the test with acetylcholine receptor [1], the Binding affinity (RU) came to 133 RU.

B17: 5mer-739 (peptide)
peptide: KDCPR
Regarding B17, in the test with acetylcholine receptor [2], the Binding affinity (RU) amounted to 16 RU.

B18: 6mer-1-292 (peptide)
peptide: RKWQTK
The molecule B18 displayed a Binding affinity (RU) in the test with acetylcholine receptor [1] of 122 RU.

B19: 5mer-746 (peptide)
peptide: RMTVK
Regarding B19, the Binding affinity (RU) in the test with acetylcholine receptor [2] was 26 RU.

B20: 5mer-729 (peptide)
peptide: KEPDK
Molecule B20 displayed a Binding affinity (RU) in the test with acetylcholine receptor [2] of 23 RU.

B21: 5mer-1039 (peptide)
peptide: KKDVK
In the case of B21, the Binding affinity (RU) with acetylcholine receptor [2] is 32 RU.

B22: 5mer-1029 (peptide)
peptide: KADIK
The molecule B22 had a Binding affinity (RU) with acetylcholine receptor [2] of 25 RU.

B23: 5mer-1044 (peptide)
peptide: RDCFK
In the test with acetylcholine receptor [2], B23 gave a Binding affinity (RU) of 22 RU.

B24: 5mer-736 (peptide)
peptide: KKHHR
Turning to B24, in the test with acetylcholine receptor [2], the Binding affinity (RU) turned out to be 24 RU.

B25: 5mer-1038 (peptide)
peptide: KCCKR
Turning to B25, the Binding affinity (RU) in the test with acetylcholine receptor [2] stood at 17 RU.

B26: 5mer-745 (peptide)
peptide: RMEIK
Turning to B26, the Binding affinity (RU) with acetylcholine receptor [2] came out at 14 RU.

B27: 5mer-1041 (peptide)
peptide: RDWFK
For B27, the Binding affinity (RU) with acetylcholine receptor [2] came out at 27 RU.

B28: 5mer-735 (peptide)
peptide: RHCER
B28 showed a Binding affinity (RU) with acetylcholine receptor [2] of 11 RU.

B29: 5mer-1037 (peptide)
peptide: KKSFR
In the test with acetylcholine receptor [2], B29 returned a Binding affinity (RU) of 28 RU.

B30: 6mer-1-276 (peptide)
peptide: RRVICK
B30 had a Binding affinity (RU) in the test with acetylcholine receptor [1] of 128 RU.

B31: 6mer-1-280 (peptide)
peptide: RKLQCK
B31: the Binding affinity (RU) with acetylcholine receptor [1] was 149 RU.

B32: 5mer-1045 (peptide)
peptide: KMDEK
The molecule B32 showed a Binding affinity (RU) in the test with acetylcholine receptor [2] of 22 RU.

B33: 5mer-1040 (peptide)
peptide: KTPWR
For the molecule B33, the Binding affinity (RU) with acetylcholine receptor [2] was 17 RU.

B34: 5mer-747 (peptide)
peptide: RKTDK
As for B34, the Binding affinity (RU) with acetylcholine receptor [2] was determined as 31 RU.

B35: 6mer-1-288 (peptide)
peptide: KKVQQR
B35: in the test with acetylcholine receptor [1], the Binding affinity (RU) is 148 RU.

B36: 5mer-1048 (peptide)
peptide: KYDNK
Turning to B36, the Binding affinity (RU) with acetylcholine receptor [2] was 12 RU.

B37: 5mer-1032 (peptide)
peptide: RHHMR
As for B37, the Binding affinity (RU) with acetylcholine receptor [2] came to 23 RU.

B38: 5mer-738 (peptide)
peptide: KTPMK
B38 gave a Binding affinity (RU) in the test with acetylcholine receptor [2] of 29 RU.

B39: 6mer-1-270 (peptide)
peptide: KRGLRR
B39: in the test with acetylcholine receptor [1], the Binding affinity (RU) turned out to be 149 RU.

B40: 5mer-1034 (peptide)
peptide: RFAKK
For the molecule B40, the Binding affinity (RU) with acetylcholine receptor [2] is 14 RU.

B41: 6mer-1-273 (peptide)
peptide: KKQVSK
As to B41, in the test with acetylcholine receptor [1], the Binding affinity (RU) is 137 RU.

B42: 5mer-730 (peptide)
peptide: KFCNK
B42 registered a Binding affinity (RU) with acetylcholine receptor [2] of 27 RU.

B43: 5mer-1047 (peptide)
peptide: KAHMR
For B43, the Binding affinity (RU) with acetylcholine receptor [2] was 23 RU.

B44: 6mer-1-282 (peptide)
peptide: RRRRYR
As to B44, in the test with acetylcholine receptor [1], the Binding affinity (RU) was 121 RU.

B45: 6mer-1-295 (peptide)
peptide: KRQRCR
For the molecule B45, the Binding affinity (RU) in the test with acetylcholine receptor [1] was found to be 148 RU.

B46: 5mer-1033 (peptide)
peptide: REWDK
In the test with acetylcholine receptor [2], B46 yielded a Binding affinity (RU) of 28 RU.

B47: 5mer-728 (peptide)
peptide: KPHIK
B47 yielded a Binding affinity (RU) in the test with acetylcholine receptor [2] of 19 RU.

B48: 6mer-1-277 (peptide)
peptide: KKGLCR
In the test with acetylcholine receptor [1], B48 displayed a Binding affinity (RU) of 141 RU.

B49: 5mer-748 (peptide)
peptide: REPMK
As to B49, the Binding affinity (RU) with acetylcholine receptor [2] came to 12 RU.

B50: 6mer-1-281 (peptide)
peptide: KRLLCR
In the test with acetylcholine receptor [1], B50 returned a Binding affinity (RU) of 154 RU.

B51: 6mer-1-269 (peptide)
peptide: RKRRQR
Consider B51, for which, in the test with acetylcholine receptor [1], the Binding affinity (RU) was determined as 142 RU.

B52: 5mer-731 (peptide)
peptide: KADHK
Regarding B52, in the test with acetylcholine receptor [2], the Binding affinity (RU) was 18 RU.

B53: 5mer-741 (peptide)
peptide: KPTPR
For the molecule B53, the Binding affinity (RU) with acetylcholine receptor [2] was determined as 14 RU.

B54: 6mer-1-271 (peptide)
peptide: RRQVSK
In the test with acetylcholine receptor [1], B54 showed a Binding affinity (RU) of 122 RU.

B55: 6mer-1-272 (peptide)
peptide: KKQVSR
Molecule B55 showed a Binding affinity (RU) with acetylcholine receptor [1] of 139 RU.

B56: 5mer-1027 (peptide)
peptide: KNTNR
For B56, in the test with acetylcholine receptor [2], the Binding affinity (RU) was 28 RU.

B57: 5mer-733 (peptide)
peptide: KTCDR
With B57, in the test with acetylcholine receptor [2], the Binding affinity (RU) was 23 RU.

B58: 6mer-1-286 (peptide)
peptide: RKLISK
As for B58, in the test with acetylcholine receptor [1], the Binding affinity (RU) was 139 RU.

B59: 5mer-743 (peptide)
peptide: KYAFR
In the test with acetylcholine receptor [2], B59 showed a Binding affinity (RU) of 15 RU.

B60: 6mer-1-279 (peptide)
peptide: RRLRYR
Consider B60, for which the Binding affinity (RU) with acetylcholine receptor [1] turned out to be 145 RU.

B61: 6mer-1-294 (peptide)
peptide: KKLYRR
For B61, the Binding affinity (RU) with acetylcholine receptor [1] is 123 RU.

B62: 6mer-1-296 (peptide)
peptide: RKSIRR
B62 showed a Binding affinity (RU) with acetylcholine receptor [1] of 121 RU.

B63: 6mer-1-275 (peptide)
peptide: RKRVLK
Turning to B63, the Binding affinity (RU) in the test with acetylcholine receptor [1] stood at 123 RU.

B64: 5mer-1046 (peptide)
peptide: KHTMR
For B64, the Binding affinity (RU) with acetylcholine receptor [2] is 19 RU.

B65: 5mer-1030 (peptide)
peptide: RISDK
In the test with acetylcholine receptor [2], B65 gave a Binding affinity (RU) of 18 RU.

B66: 6mer-1-278 (peptide)
peptide: KRQQTR
B66 had a Binding affinity (RU) with acetylcholine receptor [1] of 142 RU.

B67: 6mer-1-287 (peptide)
peptide: RKWLTR
Turning to B67, in the test with acetylcholine receptor [1], the Binding affinity (RU) stood at 136 RU.

B68: 5mer-737 (peptide)
peptide: RINVR
In the case of B68, the Binding affinity (RU) with acetylcholine receptor [2] worked out at 13 RU.

B69: 5mer-742 (peptide)
peptide: RNSDK
On to B69, for which, in the test with acetylcholine receptor [2], the Binding affinity (RU) was found to be 11 RU.

B70: 6mer-1-289 (peptide)
peptide: RKRYYR
In turn, B70 had a Binding affinity (RU) with acetylcholine receptor [1] of 153 RU.

B71: 5mer-732 (peptide)
peptide: KIMWR
B71 gave a Binding affinity (RU) with acetylcholine receptor [2] of 22 RU.
